The text below walks through data of publication PMC12478167.

pKd: −log10 of the molar value.

Assay [1] addresses sLilrB2, a soluble Fc-tagged form of LilrB2 containing the entire extracellular domain (human) (UniProt Q8N423). The assay can be described thus: SPR. In general terms: SPR reads the build-up and loss of mass on a sensor chip optically.
Assay [2] concerns the target HA-PirB expressed in HEK293 cells (mouse) (UniProt P97484). The experiment in a line: immunostaining of cells or tissue.
Assay [3] concerns the target Myc-tagged LilrB2 expressed in HEK293 cells (human) (UniProt Q8N423). The assay can be described thus: immunostaining of cells or tissue.
In assay [4] the target is endogenous PirB in mouse cortical neurons (mouse (endogenous in cortical neurons)) (UniProt P97484). The experiment in a line: immunostaining of cells or tissue.

For orientation: pKd means the negative decadic logarithm of the Kd, by convention in mol/L. Lower therefore signals a high Kd. As for “C4d, terminal split product of complement component C4 (from UniProt P0C0L4 957-1336) (domain or fragment)”, the negative-log Kd (pKd) in assay [1] was 8.52; in assay [2], 7.25; in assay [3], 7.43; in assay [4], 6.42.
